Each block holds one binder with its values, some of them ahead of it.
What was measured:
[1] = target: T1, recombinant human MASP-2 protein hMASP2-D456 (human, UniProt O00187 287-686); assay: ELISA on plate-coated hMASP2-D456, detection with HRP secondary antibody, OD450/630nm; unit taken from the axis 'Antibody nM (Ig)'
Experimental: (§1) The hMASP2-D456 was diluted to 1.0 μg/mL and 0.5 μg/mL with a carbonate buffer solution (CBS), each added to a high binding transparent polystyrene 96-well plate (Nunc) with 100 μL/well and wrapped overnight at 4° C. The next day, the ELISA plate was washed twice on an automatic plate washer with a washing buffer (PBS+0.05% Tween 20 (sigma)). 300 μL of blocking buffer (PBS+0.05% Tween 20 (sigma)+1% BSA) was added to each well, and the ELISA plate was sealed at room temperature for 1 hour. Then the ELISA plate was washed twice with the washing buffer on the automatic plate washer, and the monoclonal antibody was diluted with the blocking buffer to 8 gradients. The monoclonal antibody was sequentially added to each well of the ELISA plate and incubated at room temperature for 1 hour, and then the plate was washed 3 times according to the above method. 100 μL of goat anti-mouse HRP (Sigma, article number: M4280) or rabbit anti-rat Fc-HRP (Sigma, article number: A5795) diluted at 1:5000 in the blocking buffer was added to each well. Incubation was performed at room temperature for 1 hour, and then the plate was washed 3 times according to the above method. […] The plate was read at 450 nm on a Thermo Multiscan FC. Graphs were drawn with Graphpad and EC50 was calculated. […]

[2] = target: T2, cynomolgus monkey MASP-2 cMASP2-D456 (cynomolgus monkey); assay: ELISA on plate-coated cMASP2-D456, detection with HRP secondary antibody, OD450/630nm
T2 construct: Made by the same method as hMASP2-D456
Experimental: as §1, with “The mouse mMASP2-D456 and cynomolgus monkey cMASP2-D456 were diluted to” for “The hMASP2-D456 was diluted to”, “carbonate buffer solution, each added” for “carbonate buffer solution (CBS), each added”, “monoclonal antibody 50A6 was diluted” for “monoclonal antibody was diluted”, “buffer to 15.0 μg/mL at 11 gradients. The” for “buffer to 8 gradients. The”, “at 1:5000 with the blocking” for “at 1:5000 in the blocking”

[3] = target: T2, cynomolgus monkey MASP-2 cMASP2-D456; assay: Octet RED96e BLI, antibody captured on AHC sensor, antigen 30 nM, 1:1 fit
Experimental: (§2) Affinities of candidate antibodies JYB1931A63 and JYB1931A13 to human hMASP2-D456 (KACTUS, batch number: 080203), cynomolgus monkey cMASP2-D456 (KACTUS, batch number: 030301), and mouse mMASP2-D456 (KACTUS, batch number: 030401) were measured by Octet RED96e (Fortebio). The antigen and antibody were diluted with 1×PBST (1×PBS: Sangon, B548117-0500; 0.02% Tween 20: sigma-aldrich, P1379) at a concentration of 30 nM for the antigen and a concentration of 5 μg/mL for the antibody.
(§3) First, the sample was added to a 96-well plate (Greiner bio-one, 655209) with a system of 200 μL/well. Then, software parameters were set, the temperature of the plate was set to 30° C., and the frequency for collecting standard dynamic signals was 5.0 Hz. Next, an AHC sensor (Fortebio, article number: 18-0015) was pre-wet with 1×PBST for 10 minutes, and then data were acquired. Each cycle included the following steps: 1) immersing the sensor in a buffer solution for 60 seconds; 2) detecting whether the antigen had non-specific binding with the sensor; 3) regenerating the sensor with 10 mM pH 1.7 glycine solution; 4) immersing the sensor in the buffer solution for 60 seconds; 5) immobilizing the antibody on the sensor for 60 seconds; 6) immersing the sensor in the buffer solution for 180 seconds; 7) binding the antigen and the antibody for 180 seconds; 8) dissociating the antigen and the antibody for 5 minutes; and 9) regenerating the sensor.
(§4) A binding rate (Ka) and a dissociation rate (Kd) in a 1:1 antigen-antibody binding manner were measured by Fortebio's Data Analysis 12.0 software to calculate an equilibrium dissociation constant (KD) of the antibody.

[4] = target: T1, recombinant human MASP-2 protein …; assay: as above
Experimental: as §2, §3, §4

[5] = target: T3, mouse MASP-2 mMASP2-D456 (mouse, UniProt Q91WP0 287-685); assay: Octet RED96e BLI, antibody captured on AHC sensor, antigen in solution
T3 construct: Made by the same method as hMASP2-D456
Experimental: as §2
First, the sample was added to a 96-well plate (Greiner bio-one, 655209) with a system of 200 μL/well. Then, software parameters were set, the temperature of the plate was set to 30° C., and the frequency for collecting standard dynamic signals was 5.0 Hz. Next, an AHC sensor (Fortebio, article number: 18-0015) was pre-wet with 1×PBST for 10 minutes, and then data were acquired. […]
as §4

[6] = target: T1, recombinant human MASP-2 protein …; assay: ELISA on plate-coated hMASP2-D456, detection with HRP secondary antibody, OD450/630nm; unit taken from the axis 'Antibody pM (Ig)'
Experimental: as §1

[7] = target: T3, mouse MASP-2 mMASP2-D456; assay: ELISA on plate-coated mMASP2-D456, OD450/630nm
Experimental: as §1, with “The mouse mMASP2-D456 and cynomolgus monkey cMASP2-D456 were diluted to” for “The hMASP2-D456 was diluted to”, “carbonate buffer solution, each added” for “carbonate buffer solution (CBS), each added”, “monoclonal antibody 50A6 was diluted” for “monoclonal antibody was diluted”, “buffer to 15.0 μg/mL at 11 gradients. The” for “buffer to 8 gradients. The”, “at 1:5000 with the blocking” for “at 1:5000 in the blocking”

[8] = target: T2, cynomolgus monkey MASP-2 cMASP2-D456; assay: ELISA on plate-coated cMASP2-D456, detection with HRP secondary antibody, OD450/630nm; unit taken from the axis 'Antibody pM (Ig)'
Experimental: as §1, with “The mouse mMASP2-D456 and cynomolgus monkey cMASP2-D456 were diluted to” for “The hMASP2-D456 was diluted to”, “carbonate buffer solution, each added” for “carbonate buffer solution (CBS), each added”, “monoclonal antibody 50A6 was diluted” for “monoclonal antibody was diluted”, “buffer to 15.0 μg/mL at 11 gradients. The” for “buffer to 8 gradients. The”, “at 1:5000 with the blocking” for “at 1:5000 in the blocking”

T1 sequence (O00187 other isoform, or with tags, fused parts or gaps limits assumed): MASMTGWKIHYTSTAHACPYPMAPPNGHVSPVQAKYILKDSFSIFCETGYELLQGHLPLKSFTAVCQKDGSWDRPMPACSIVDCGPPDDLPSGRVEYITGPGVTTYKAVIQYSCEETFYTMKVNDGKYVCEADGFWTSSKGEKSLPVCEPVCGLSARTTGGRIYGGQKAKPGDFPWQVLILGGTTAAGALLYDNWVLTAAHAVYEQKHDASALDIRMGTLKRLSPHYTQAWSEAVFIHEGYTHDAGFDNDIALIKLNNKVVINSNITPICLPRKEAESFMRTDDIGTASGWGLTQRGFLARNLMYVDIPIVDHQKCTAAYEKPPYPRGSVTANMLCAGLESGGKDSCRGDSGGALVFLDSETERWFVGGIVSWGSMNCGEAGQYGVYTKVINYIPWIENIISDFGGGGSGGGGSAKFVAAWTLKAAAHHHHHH
T3 sequence (Q91WP0 other isoform, or with tags, fused parts or gaps limits assumed): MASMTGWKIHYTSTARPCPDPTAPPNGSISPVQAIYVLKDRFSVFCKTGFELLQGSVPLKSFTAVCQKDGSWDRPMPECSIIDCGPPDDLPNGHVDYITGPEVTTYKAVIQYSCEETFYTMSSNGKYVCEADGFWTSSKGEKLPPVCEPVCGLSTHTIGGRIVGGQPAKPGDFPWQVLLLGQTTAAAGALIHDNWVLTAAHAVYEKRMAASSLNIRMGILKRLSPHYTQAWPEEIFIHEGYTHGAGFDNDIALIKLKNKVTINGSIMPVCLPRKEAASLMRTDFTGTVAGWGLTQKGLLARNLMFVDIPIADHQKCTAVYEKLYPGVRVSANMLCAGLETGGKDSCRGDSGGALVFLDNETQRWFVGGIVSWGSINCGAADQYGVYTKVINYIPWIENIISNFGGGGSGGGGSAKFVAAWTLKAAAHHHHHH
T2 sequence (chain, as listed by the source limits assumed): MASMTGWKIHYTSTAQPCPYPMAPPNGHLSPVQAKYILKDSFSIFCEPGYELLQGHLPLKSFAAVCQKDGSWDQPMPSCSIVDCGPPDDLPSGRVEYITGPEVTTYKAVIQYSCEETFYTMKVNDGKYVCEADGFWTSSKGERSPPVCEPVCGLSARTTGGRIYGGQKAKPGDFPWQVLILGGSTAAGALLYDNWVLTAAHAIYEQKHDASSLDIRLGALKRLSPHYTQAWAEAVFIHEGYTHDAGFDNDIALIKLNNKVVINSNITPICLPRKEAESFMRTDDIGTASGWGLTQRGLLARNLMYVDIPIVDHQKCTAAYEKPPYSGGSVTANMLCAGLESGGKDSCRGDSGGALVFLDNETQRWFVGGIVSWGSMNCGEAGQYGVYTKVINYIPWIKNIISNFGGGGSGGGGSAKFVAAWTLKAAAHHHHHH

EC50 [1]: 0.333 nM | EC50 (read off the curve) [2]: ~0.6 nM
B1: mouse anti-human MASP-2 monoclonal antibody 47A1 (antibody, V domains shown)
VH: DVQLQESGPGLVKPSQSLSLTCTVTGYSITSDYAWNWIRQFPGNKLEWMGYISYSGRTSYNPSLKSRISITRNTSTNQFFLQLNSVTTEDTATYFCARYWGDYWGQGTTLTVSS
VL: DIVMTQSQKFMSTSVGDRVSVTCKASQNVGSNVAWFQQKPGQSPKPLIYSASYRYSGVPDRFTGSGSGTDFTLTISNVQSEDLAEYFCHQYNTYPLTFGAGTKLELN
notes: Mouse hybridoma monoclonal antibody purified from serum-free culture and detected with anti-mouse HRP; the mouse constant regions are not; also called 47A1 antibody

Kd [3]: 1.31 nM | Kd [4]: 0.335 nM | binding result [5]: no binding (tested: 30 nM antigen)
B2: humanized anti-MASP-2 antibody JYB1931A63 (antibody, V domains shown)
VH: EVQLVESGGGLVQPGGSLRLSCAASGFTFNDYNMAWVRQAPGKGLEWVATILFDGSRTYYRDSVKGRFTISRDNAKNSLYLQMNSLRAEDTAVYYCSTESPYYSEGYYQGYFDYWGQGTLVTVSS
VL: EIVLTQSPATLSLSPGERATLSCRASQSVSTSIHWYQQKPGQAPRLLIKYASRSISGIPARFSGSGSGTDFTLTISSLEPEDFAVYYCQQSYSSLYTFGQGTKLEIK
notes: Humanized from 50A6 and expressed in ExpiCHO as a full antibody; captured on an AHC (anti-human Fc) sensor

EC50 [6]: 0.0933 nM | binding result [7]: no binding | EC50 [8]: 0.067 nM
B3: rat anti-human MASP-2 monoclonal antibody 50A6 (antibody, V domains shown)
VH: EVQLVESGGGLVQPGRSLSLSCAASGFTFNDYNMAWVRQTPKKGLEWVATILFDGSRTYYRDSVKGRFTISRENAKSTLYLQMDSLRSEDTATYYCSTESPYYSEGYYQGYFDYWGQGVMVTVSS
VL: NIVLTQSPATLSVTPGESVSLSCRASQSVSTSIHWYQQRSNESPRLLIKYASRSISGIPSRFSGSGSGTDFTLSINRVESEDFSIYYCQQSYSSLYTFGAGTKLELR
notes: Rat hybridoma monoclonal antibody purified from serum-free culture and detected with anti-rat Fc-HRP; the rat constant regions are not; also called 50A6 antibody

Kd [3]: 0.305 nM | Kd [4]: 1.17 nM | binding result [5]: no binding (tested: 30 nM antigen)
B4: humanized anti-MASP-2 antibody JYB1931A13 (antibody, V domains shown)
VH: QVQLQESGPGLVKPSQTLSLTCTVSGYSITSDYAWNWIRQPPGKGLEWIGYISYSGRTSYNPSLKSRVTISRDTSKNQFSLKLSSVTAADTAVYYCARYWGDYWGQGTLVTVSS
VL: DIQMTQSPSSLSASVGDRVTITCKASQNVGSNVAWFQQKPGKAPKPLIYSASYRYSGVPSRFSGSGSGTDFTLTISSLQPEDFATYFCHQYNTYPLTFGGGTKVEIK
notes: Humanized from 47A1 and expressed in ExpiCHO as a full antibody; captured on an AHC (anti-human Fc) sensor

— patent US20240141069A1 (SHANGHAI JEMINCARE PHARMACEUTICAL, published 2024)
